What was measured:
[1] = molecular target: T1, Nipah virus attachment (receptor-binding) glycoprotein (GP), wild type (Nipah virus; strain of the assayed …, UniProt Q9IH62); assay: BLI; settings: both partners purified
T1 construct: source: HEK 293-F FreeStyle, transiently transfected, purified from supernatant (Ni-NTA)

[2] = molecular target: T1, Nipah virus attachment …; assay: ELISA; settings: both partners purified

B1: monoclonal antibody m102.4 (wild type) (antibody, V domains shown)
VH: EVQVIQSGADVKKPGSSVKVSCKSSGGTFSKYAINWVRQAPGQGLEWMGGIIPILGIANYAQKFQGRVTITTDESTSTAYMELSSLRSEDTAVYYCARGWGREQLAPHPSQYYYYYYGMDVWGQGTTVTVSS
VL: EIVMTQSPGTLSLAPGERATLSCWASQSVRNNYLAWYQQKPGQAPRLVIYNGSTRATGIPDRFSGSGSGTDFTLTISRLDPEDFAVYYCQQYGNSRRVTFGGGTKVEIK
notes: also called wild-type Nipah antibody; anti-Nipah mAb
Q: For B1, which Kd [1] is on record?
A: The Kd was 0.07 ± 0.01 nM.

Q: And the koff [1]?
A: Its koff is 4.53e-05 s⁻¹.

Q: What about the kon [1] of the same binder?
A: The kon was 646000 M⁻¹ s⁻¹.

Q: What about the Kd [2] of the same binder?
A: The Kd was 0.12 nM.

From publication PMC7588459 (Scientific Reports, 2020)
